# Patent US20250092426, “CAS ENDONUCLEASES AND RELATED METHODS” (Flagship Pioneering Innovations VII, LLC, published 2025)
# T1: CasEnd-34 (synthetic construct)
# T1 chain: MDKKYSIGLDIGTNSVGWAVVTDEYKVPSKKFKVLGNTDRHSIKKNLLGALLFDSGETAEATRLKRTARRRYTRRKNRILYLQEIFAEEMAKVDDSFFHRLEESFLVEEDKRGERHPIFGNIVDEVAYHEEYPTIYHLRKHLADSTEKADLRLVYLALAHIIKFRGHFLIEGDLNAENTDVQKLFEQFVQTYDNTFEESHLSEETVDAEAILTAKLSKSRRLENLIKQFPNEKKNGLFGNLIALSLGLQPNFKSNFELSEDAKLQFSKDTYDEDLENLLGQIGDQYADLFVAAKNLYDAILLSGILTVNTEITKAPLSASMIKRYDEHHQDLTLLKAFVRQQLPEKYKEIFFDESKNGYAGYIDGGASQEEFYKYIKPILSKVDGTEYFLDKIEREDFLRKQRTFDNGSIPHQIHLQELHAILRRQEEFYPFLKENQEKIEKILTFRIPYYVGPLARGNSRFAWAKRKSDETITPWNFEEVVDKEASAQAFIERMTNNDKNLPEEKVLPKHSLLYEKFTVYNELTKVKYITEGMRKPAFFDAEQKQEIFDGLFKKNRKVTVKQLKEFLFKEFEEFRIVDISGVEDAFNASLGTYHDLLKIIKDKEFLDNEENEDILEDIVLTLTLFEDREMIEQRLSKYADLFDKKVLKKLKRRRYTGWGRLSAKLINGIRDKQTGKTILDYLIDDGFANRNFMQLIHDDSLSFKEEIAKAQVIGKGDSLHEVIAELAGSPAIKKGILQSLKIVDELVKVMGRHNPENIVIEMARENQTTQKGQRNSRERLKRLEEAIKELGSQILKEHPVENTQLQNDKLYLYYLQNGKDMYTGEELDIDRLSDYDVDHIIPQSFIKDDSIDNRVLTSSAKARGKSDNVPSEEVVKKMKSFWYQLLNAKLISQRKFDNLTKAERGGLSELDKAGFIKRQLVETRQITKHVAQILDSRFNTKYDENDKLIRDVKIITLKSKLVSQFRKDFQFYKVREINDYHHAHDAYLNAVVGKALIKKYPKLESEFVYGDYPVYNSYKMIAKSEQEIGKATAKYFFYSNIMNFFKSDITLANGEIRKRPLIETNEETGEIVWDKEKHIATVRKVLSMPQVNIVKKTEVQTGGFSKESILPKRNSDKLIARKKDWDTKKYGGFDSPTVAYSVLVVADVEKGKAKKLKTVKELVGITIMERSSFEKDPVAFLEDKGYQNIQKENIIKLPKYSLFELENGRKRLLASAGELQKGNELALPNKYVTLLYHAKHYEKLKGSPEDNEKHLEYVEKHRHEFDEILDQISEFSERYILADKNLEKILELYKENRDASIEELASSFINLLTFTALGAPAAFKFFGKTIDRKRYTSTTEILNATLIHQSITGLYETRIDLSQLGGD
# B1: BFP-to-GFP template RNA ; BFP reporter protospacer (ssRNA ; dsDNA)
# RNA: GCCGAAGCACUGCACGCCGUGUUUUAGAGCUAGAAAUAGCAAGUUAAAAUAAGGCUAGUCCGUUAUCAACUUGAAAAAGUGGCACCGAGUCGGUGCACCCUGACGUACGGCGUGCAGUGCUU
# DNA 1: GCCGAAGCACTGCACGCCGT
# DNA 2: ACGGCGTGCAGTGCTTCGGC
# Biological target: T1, CasEnd-34
# Experiment: cell_activity; +++; HEK293T; PAM not stated
# Summary of the method: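 BFP-to-GFP conversion via reverse transcriptase fusion with each Cas endonuclease plus template RNA: 200 ng of each plasmid nucleofected into 250,000 BFP-expressing HEK293T cells (program DS-150). Percent GFP+ cells by flow cytometry at day 4 measured editing.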
binder,measurement,value
B1,activity,≥ 100 % of reference
